For this assay, the target named is J1a DBLβ domain (wild type) (Plasmodium falciparum). The assay is described as follows: SPR. For orientation: SPR reads the build-up and loss of mass on a sensor chip optically.

B1: ICAM-1^D1D5-Fc (Fc fusion)
chain: QTSVSPSKVILPRGGSVLVTCSTSCDQPKLLGIETPLPKKELLLPGNNRKVYELSNVQEDSQPMCYSNCPDGQSTAKTFLTVYWTPERVELAPLPSWQPVGKNLTLRCQVEGGAPRANLTVVLLRGEKELKREPAVGEPAEVTTTVLVRRDHHGANFSCRTELDLRPQGLELFENTSAPYQLQTFVLPATPPQLVSPRVLEVDTQGTVVCSLDGLFPVSEAQVHLALGDQRLNPTVTYGNDSFSAKASVSVTAEDEGTQRLTCAVILGNQSQETLQTVTIYSFPAPNVILTKPEVSEGTEVTVKCEAHPRAKVTLNGVPAQPLGPRAQLLLKATPEDNGRSFSCSATLEVAGQLIHKNQTRELRVLYGPRLDERDCPGNWTWPENSQQTPMCQAWGNPLPELKCLKDGTFPLPIGESVTVTRDLEGTYLCRARSTQGEVTRKVTVNVLSPRYE
What is called Kd is the free concentration of one partner at which half of the binding sites on the other are occupied at equilibrium, for simple one-to-one binding. Low readings indicate tighter binding, high ones weaker binding. Molecule B1 registered a Kd of 262 nM.

The record behind these values is paper PMC6778195 (2019).
